Biological target: T1, myc- and green-fluorescent protein (GFP) tagged mAKAP 1694-1833 (UniProt Q9WVC7)
T1 sequence: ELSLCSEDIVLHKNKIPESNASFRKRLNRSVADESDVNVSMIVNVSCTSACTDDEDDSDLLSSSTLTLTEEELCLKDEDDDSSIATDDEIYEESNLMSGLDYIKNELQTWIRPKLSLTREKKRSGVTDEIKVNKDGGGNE

## endogenous CaMKII (Ca2+/calmodulin-dependent protein kinase II) of neonatal rat ventricular myocytes
  HDAC4 phosphorylation (basal and Angiotensin II-induced) in neonatal myocytes: both basal and Angiotensin II-induced HDAC4 phosphorylation in neonatal myocytes is inhibited by mAKAP 1694-1833 expression
